Measurements reported in the Human Domainome abundance scans (Beltran et al. 2025).
± gives the uncertainty stated by the source.

B1: Apoptosis-associated speck-like protein containing a CARD, residues 114 to 194; numbered along this chain, Q9ULZ3 (parent)
chain: FIDQHRAALIARVTNVEWLLDALYGKVLTDEQYQAVRAEPTNPSKMRKLFSFTPAWNWTCKDLLLQALRESQSYLVEDLER

Variants of: B1
Experiment: abundance fitness (aPCA) (normalised: wild type 0, dead -1); higher = more abundant; growth selection in yeast, the domain comes from the species named
Details: Homo sapiens

Variant | abundance fitness
FIDQHRAALIARVTNVEWLLDALYGKVLTDEQYQAVRAEPTNPSKMRNLFSFTPAWNWTCKDLLLQALRESQSYLVEDLER | -0.802 ± 0.22
FIDQHRAALIARVTNVEWLLDALYGKVLTDEQYQAVRAEPTNPSKMRQLFSFTPAWNWTCKDLLLQALRESQSYLVEDLER | -0.674 ± 0.16
FIDQHRAALIARVTNVEWLLDALYGKVLTDEQYQAVRAEPTNPSKMRFLFSFTPAWNWTCKDLLLQALRESQSYLVEDLER | -0.585 ± 0.12
FIDQHRAALIARVTNVEWLLDALYGKVLTDEQYQAVRAEPTNPSKMRKLFSFTPAWNWTCKDLLLQALRESQSYLGEDLER | -0.587 ± 0.075
FIDQHRAALIARVTNVEWLLDALYGKVLTDEQYQAVRAEPTNPSKMRKLFSFTPAWNWTCKDLLLQALRESQSYLDEDLER | -0.312 ± 0.12
FIDQHRAALIARVTNVEWLLDALYGKVLTDEQYQAVRAEPTNPSKMRKLFSFTPAWNWTCKDLLLQALRESQSYLHEDLER | -0.959 ± 0.35
FIDQHRAALIARVTNVEWLLDALYGKVLTDEQYQAVRAEPTNPSSMRKLFSFTPAWNWTCKDLLLQALRESQSYLVEDLER | -0.273 ± 0.07
FIDQHRAALIARVTNVEWLLDALYGKVLTDEQYQAVRAEPTNSSKMRKLFSFTPAWNWTCKDLLLQALRESQSYLVEDLER | -0.061 ± 0.046
FIDQHRAALIARVTNVEWLLDALYGKVLTDEQYQAVRAEPTNESKMRKLFSFTPAWNWTCKDLLLQALRESQSYLVEDLER | 0.07 ± 0.072
FIDQHRAALIARVTNVEWLLDALYGKVLTDEQYQAVRAEPTNPSKMRKLFSFTPAWNWTCKDLLLQALRASQSYLVEDLER | -0.209 ± 0.086
FIDQHRAALIARVTNVCWLLDALYGKVLTDEQYQAVRAEPTNPSKMRKLFSFTPAWNWTCKDLLLQALRESQSYLVEDLER | -0.867 ± 0.21
FIDQHRAALIARVTNVAWLLDALYGKVLTDEQYQAVRAEPTNPSKMRKLFSFTPAWNWTCKDLLLQALRESQSYLVEDLER | -0.619 ± 0.067
FIDQHRAALIARVTNVEWLLDALYGKVLTDEQYQAVRAEPTNPSKMRKLFSFTPAWNWTCKDVLLQALRESQSYLVEDLER | -0.232 ± 0.055
FIDQHRAALIARVTNVEWLLDALYGKVLTDEQYQAVRAEPTNPSKMRKLFSFTPAWNWTCKDLLLQALRESQSRLVEDLER | -0.031 ± 0.045
FIDQHRAALIARVTNVEWLLDALYGKVLTDEQYQAVRAEPTNPSKMRKLFSFTPAWNWTCKDLLLQALREFQSYLVEDLER | -0.8 ± 0.14
FIDQHRAALIARVTNVEWLLDALYGKVLTDEQYQAVRAEPTNPSKMRKLFSFTPAWNWTCKDLLLQALRECQSYLVEDLER | -0.453 ± 0.12
FIDQHRAALIARVTNVEILLDALYGKVLTDEQYQAVRAEPTNPSKMRKLFSFTPAWNWTCKDLLLQALRESQSYLVEDLER | 0.061 ± 0.12
FIDQHRAALIARVTNVEWLLDALYGKVLTDEQYQAVRAEPTNPSKMRKLFSFTPAWNQTCKDLLLQALRESQSYLVEDLER | 0.174 ± 0.058
FIDQHRAALIARVTNVEWLLDALYGKVLTDEQYQAVRAEPTNPSKMRKLFSFTPAWNCTCKDLLLQALRESQSYLVEDLER | 0.047 ± 0.082
FIDQHRAALIARVTNVEWLLDALYGKVLTDEQYQAVRAEPTNPSKMRKLFSFTPAWNWTCKKLLLQALRESQSYLVEDLER | -0.088 ± 0.081
FIDQHRAALIARVTNVEWLLDALYGKVLTDEQYQAVRAEPTNPSKMRKLFSFTPAWNWTCKYLLLQALRESQSYLVEDLER | -0.644 ± 0.19
FIPQHRAALIARVTNVEWLLDALYGKVLTDEQYQAVRAEPTNPSKMRKLFSFTPAWNWTCKDLLLQALRESQSYLVEDLER | -0.951 ± 0.21
FIDQHRAALIARVTNVEWLLDALYGKVLTDEQYQAVRAEPTNPSKMRKLFSFTPEWNWTCKDLLLQALRESQSYLVEDLER | 0.087 ± 0.073

Variant | abundance fitness
FIDQHRAALIARVDNVEWLLDALYGKVLTDEQYQAVRAEPTNPSKMRKLFSFTPAWNWTCKDLLLQALRESQSYLVEDLER | -0.058 ± 0.098
FIDQHRAALIARVTNVEWLLDALYGKVLTDEQYQAVRAEPTNPSKMRKLFSFTPAWSWTCKDLLLQALRESQSYLVEDLER | 0.018 ± 0.052
FIDQHRAALIAPVTNVEWLLDALYGKVLTDEQYQAVRAEPTNPSKMRKLFSFTPAWNWTCKDLLLQALRESQSYLVEDLER | -0.964 ± 0.18
FIDQHRAALIARVTNVEWLLDALYGKVLTDEQYQAVRAEPTNPSKMRKLFSFTPAWNWTCKDLVLQALRESQSYLVEDLER | -0.123 ± 0.05
FIDQHRAALIARVTNVEWLLDALYGKVLTDEQYQAVRPEPTNPSKMRKLFSFTPAWNWTCKDLLLQALRESQSYLVEDLER | -0.935 ± 0.17
FIDQHRAYLIARVTNVEWLLDALYGKVLTDEQYQAVRAEPTNPSKMRKLFSFTPAWNWTCKDLLLQALRESQSYLVEDLER | -0.193 ± 0.12
FIDQHRAALIARVTNVEWLLDALYGKVLTDEDYQAVRAEPTNPSKMRKLFSFTPAWNWTCKDLLLQALRESQSYLVEDLER | -0.842 ± 0.27
FIDQHRAALIARVTNVEWLLDALYGKVLTDEQYQAVRAEPTNPSKMRKLFSFTPAWNWTCKDLLLQPLRESQSYLVEDLER | -0.658 ± 0.11
FIDQHRAALIARVTNVEWLLDANYGKVLTDEQYQAVRAEPTNPSKMRKLFSFTPAWNWTCKDLLLQALRESQSYLVEDLER | -1.06 ± 0.38
FIDQHRAALIARVTNVEWLLDALYGKVLTDEQYQAVRAWPTNPSKMRKLFSFTPAWNWTCKDLLLQALRESQSYLVEDLER | -0.946 ± 0.19
FIDQHRAALIARVTNVEWLLDALYGKVLTDEQYQAVRAIPTNPSKMRKLFSFTPAWNWTCKDLLLQALRESQSYLVEDLER | -0.909 ± 0.25
FIDQHRAALIARVTNVEWLLDALYGKVLTDEQYQAVRAKPTNPSKMRKLFSFTPAWNWTCKDLLLQALRESQSYLVEDLER | -0.549 ± 0.11
FIDQHRAALIARVTNVEWLLDALYGKVLTDEQYQAVRAEPTNPSKMMKLFSFTPAWNWTCKDLLLQALRESQSYLVEDLER | -0.166 ± 0.083
FIDQHRAALIARVTNVEWLLDALYGKVLTDEQYQAVRAEPTNPSKMRKLFSFTPAWNWTCKDLLLQALRESRSYLVEDLER | -0.691 ± 0.071
FIDQHRAALIARVTNVEWLLDALYGKVLTDEQYQAVRAEPTPPSKMRKLFSFTPAWNWTCKDLLLQALRESQSYLVEDLER | -0.306 ± 0.077
FIDQHRAALIARVTNVEWLLDALYGKVLTDEQYQAVRAEPTGPSKMRKLFSFTPAWNWTCKDLLLQALRESQSYLVEDLER | -0.331 ± 0.05
FIDQHRAALIARVTNVEWLLDALYGKVLTDAQYQAVRAEPTNPSKMRKLFSFTPAWNWTCKDLLLQALRESQSYLVEDLER | -0.252 ± 0.054
FIDQHRAAQIARVTNVEWLLDALYGKVLTDEQYQAVRAEPTNPSKMRKLFSFTPAWNWTCKDLLLQALRESQSYLVEDLER | -1.03 ± 0.27
FIDQHRAALIARVTNVEWLLDALYGKVLTDEQYQAVRAEPTNPSKMRKLFSFTPAWNWTCKDLLLQALRESQSYLVEDLKR | -0.751 ± 0.21
FIDQHRAALIARVTNVEWLLDALYGKVLTDEQYQAVRAEPTNPSKMRKLFSFTPAWNWTCKDLLLQALRESQSYLVEDLTR | -0.172 ± 0.14
FIDQHRAALIARVTNVEWLLDALYGKVLTDEQYQAVRAEPTNPSKMRKLFSFTPAWNWTCKDLLLQALRESQSYLVEDLVR | -0.409 ± 0.067
FIDQHRAALIARVTYVEWLLDALYGKVLTDEQYQAVRAEPTNPSKMRKLFSFTPAWNWTCKDLLLQALRESQSYLVEDLER | -0.555 ± 0.2
FIDQHEAALIARVTNVEWLLDALYGKVLTDEQYQAVRAEPTNPSKMRKLFSFTPAWNWTCKDLLLQALRESQSYLVEDLER | -0.141 ± 0.084

Variant | abundance fitness
FIDQHRAALIARVTNVEWLLDALYSKVLTDEQYQAVRAEPTNPSKMRKLFSFTPAWNWTCKDLLLQALRESQSYLVEDLER | -0.701 ± 0.084
FIDQHRAALIARVTNVEWLLDALYGKVLTDEQYQAVRAEPTNPSKMRKLPSFTPAWNWTCKDLLLQALRESQSYLVEDLER | -0.607 ± 0.098
FIDQHRAALIARVTNVEWLLDALYGKVLTDEQYQAVRAEPTNPSKMRKLESFTPAWNWTCKDLLLQALRESQSYLVEDLER | -0.799 ± 0.19
FIDQHRAALIARVTNVEWLLDALYGKVLTDEQYQAVRAEPTNPSKMRKLQSFTPAWNWTCKDLLLQALRESQSYLVEDLER | -0.871 ± 0.18
FIDQHRAALIARVTNVEWVLDALYGKVLTDEQYQAVRAEPTNPSKMRKLFSFTPAWNWTCKDLLLQALRESQSYLVEDLER | -0.051 ± 0.05
FIDQHRAALIARVTNVEWLLDALYGKVLTDEQYQAVRAEPTNPSKMRKLFSFTPAWNWTCKDLLLQALRESQCYLVEDLER | -0.257 ± 0.09
FIDQHRAALIARVTNVEWLLDALYGKVLTDEQYQAVRAEPTNPSKMRKLFSFTPAWNWTCKDLLLQALRESQDYLVEDLER | -0.338 ± 0.13
FIDQHRAALIARVTNVEWLLDALYGKFLTDEQYQAVRAEPTNPSKMRKLFSFTPAWNWTCKDLLLQALRESQSYLVEDLER | -0.413 ± 0.1
FIDQHRAALIARVTNVEWLLDALYGKQLTDEQYQAVRAEPTNPSKMRKLFSFTPAWNWTCKDLLLQALRESQSYLVEDLER | -0.613 ± 0.15
FIDQHRAALIARVTNCEWLLDALYGKVLTDEQYQAVRAEPTNPSKMRKLFSFTPAWNWTCKDLLLQALRESQSYLVEDLER | -0.342 ± 0.16
FIDQHRAALIARVTNVEWLLDALYGKVLTDEQYQAVRAEPTNPSKMRKLFSFTPAWNWDCKDLLLQALRESQSYLVEDLER | -0.007 ± 0.1
FIDQHRAALIARVTNVEWLLDALYGKVLTDEQYQAVRAEPTNPSKMRKLFSFTPAWNWKCKDLLLQALRESQSYLVEDLER | 0 ± 0.079
FIDQHRAALIARVTNVEWLLDALYGKVLTDEQYQAVRAEPTNPSKMRKLFSFTPAWNWTCKDLLLDALRESQSYLVEDLER | -0.174 ± 0.1
FIDQHRAALIARVTNVEWLLDHLYGKVLTDEQYQAVRAEPTNPSKMRKLFSFTPAWNWTCKDLLLQALRESQSYLVEDLER | -0.116 ± 0.22
FIDQHRAALIARVTNVEWLLDILYGKVLTDEQYQAVRAEPTNPSKMRKLFSFTPAWNWTCKDLLLQALRESQSYLVEDLER | 0.126 ± 0.28
FIDQHRAALIARVTNVEWLLDKLYGKVLTDEQYQAVRAEPTNPSKMRKLFSFTPAWNWTCKDLLLQALRESQSYLVEDLER | 0.331 ± 0.081
FIDQYRAALIARVTNVEWLLDALYGKVLTDEQYQAVRAEPTNPSKMRKLFSFTPAWNWTCKDLLLQALRESQSYLVEDLER | -0.316 ± 0.11
FIDQHRAALIARVTNVEWLLDALYGKVLTDEQYQAVRAEPTNPSKMRKLFSFTPAWNWTCKDLLLQALRESQSYLVEDGER | -0.882 ± 0.11
FIDQHRAALIARVTNVEWLLDALYGKVLTDEQYQAVRAEPTNPSKMRKLFSFTTAWNWTCKDLLLQALRESQSYLVEDLER | 0 ± 0.069
FIDQHRAALIARVTNVEWLLDALYGKVLTAEQYQAVRAEPTNPSKMRKLFSFTPAWNWTCKDLLLQALRESQSYLVEDLER | -0.165 ± 0.06
FIDQHRAALIARVTNVEWLLDALYGKVLTDEQYQAVRAEKTNPSKMRKLFSFTPAWNWTCKDLLLQALRESQSYLVEDLER | -0.123 ± 0.086
FIDQHRAALIARVTNVEWLLDALYGKVLTDEQYQAVRAEPTNPSKMRKLFSKTPAWNWTCKDLLLQALRESQSYLVEDLER | -1 ± 0.35
